Test results: IntAct's records for PubMed 16717130

Biological target: git1_human GIT1 (UniProt Q9Y2X7)
Sequence (Q9Y2X7 whole entry): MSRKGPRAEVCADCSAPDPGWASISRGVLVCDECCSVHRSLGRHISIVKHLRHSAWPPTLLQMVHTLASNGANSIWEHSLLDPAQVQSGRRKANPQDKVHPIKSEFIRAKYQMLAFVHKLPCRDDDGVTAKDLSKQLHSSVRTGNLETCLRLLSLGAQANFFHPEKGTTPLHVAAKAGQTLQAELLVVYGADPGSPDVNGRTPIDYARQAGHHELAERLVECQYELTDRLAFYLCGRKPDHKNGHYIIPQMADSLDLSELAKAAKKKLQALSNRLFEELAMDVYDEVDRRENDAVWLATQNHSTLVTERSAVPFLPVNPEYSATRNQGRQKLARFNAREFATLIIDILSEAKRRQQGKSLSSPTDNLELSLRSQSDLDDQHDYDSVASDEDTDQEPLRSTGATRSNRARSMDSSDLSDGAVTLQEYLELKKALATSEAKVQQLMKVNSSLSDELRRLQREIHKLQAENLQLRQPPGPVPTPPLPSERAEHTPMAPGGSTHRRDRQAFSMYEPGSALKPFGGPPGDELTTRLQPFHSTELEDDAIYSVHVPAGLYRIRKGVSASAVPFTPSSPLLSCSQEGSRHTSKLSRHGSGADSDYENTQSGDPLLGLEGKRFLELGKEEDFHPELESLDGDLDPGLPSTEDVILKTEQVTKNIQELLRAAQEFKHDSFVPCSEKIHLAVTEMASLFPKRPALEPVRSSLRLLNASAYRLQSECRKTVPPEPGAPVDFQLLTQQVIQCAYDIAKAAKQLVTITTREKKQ

Chain of Paxillin (Gallus gallus (Chicken)), P49024 S273D (P49024 whole entry S273D): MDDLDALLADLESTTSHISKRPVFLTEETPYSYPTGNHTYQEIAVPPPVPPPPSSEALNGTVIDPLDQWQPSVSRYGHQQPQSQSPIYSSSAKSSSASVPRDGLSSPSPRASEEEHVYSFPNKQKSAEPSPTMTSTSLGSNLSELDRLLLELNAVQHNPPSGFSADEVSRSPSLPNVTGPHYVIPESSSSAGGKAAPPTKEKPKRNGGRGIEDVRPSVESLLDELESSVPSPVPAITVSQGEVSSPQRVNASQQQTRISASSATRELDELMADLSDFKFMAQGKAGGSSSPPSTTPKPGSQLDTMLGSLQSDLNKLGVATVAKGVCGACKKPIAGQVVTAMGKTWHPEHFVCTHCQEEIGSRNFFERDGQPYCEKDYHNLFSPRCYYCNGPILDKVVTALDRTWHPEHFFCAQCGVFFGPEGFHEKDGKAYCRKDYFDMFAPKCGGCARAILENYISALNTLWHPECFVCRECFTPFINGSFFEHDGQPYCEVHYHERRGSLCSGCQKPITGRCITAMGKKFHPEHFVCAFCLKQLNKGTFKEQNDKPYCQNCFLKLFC
Chain of Paxillin (Gallus gallus (Chicken)), P49024 S273A (P49024 whole entry S273A): as the sequence (P49024 whole entry S273D) above, with D273A counted along it

| Substance | effect of a mutation on the interaction |
| --- | --- |
| Paxillin (Gallus gallus (Chicken)), P49024 S273A | decreasing interaction |
| Paxillin (Gallus gallus (Chicken)), P49024 S273D | increasing interaction |
